In patent publication US6894149 (PROTEIN DESIGN LABS, dated 2005):

B1: K8-355 (antibody, mouse IgG1, V domains shown)
VH: QIQLVQSGPELKKPGETVKISCKASKYTFTNYGMNWVKQAPGKVLRWMGWINTYTGEPTYADDFKGRFAFSLETSASTAYLQINNLKNEDMATYFCATTTLITYYFDYWGQGTTLTVSS
VL: DIQMTQTTSSLSASLGDRVTISCRSSQDISKYLNWYQQKPDGTVKLLIYYTSRLHSGVPSRFSGSGSGTDYSLTISNLEQEDIATYFCQQGDTVPWTFGGGTKLEIK

How the values were obtained:
[1] = target: HLA-DR on solid tumor cell lines C32, HT-144 (melanoma) and OVCAR-5 (ovarian) (human); test: cell-based or functional assay
[2] = target: HLA-DR on solid tumor cell lines C32, HT-144 (melanoma) and OVCAR-5 (ovarian) (human, UniProt P01903 26-254; P01911 30-266); test: cell-based or functional assay

Row | Molecule | specific cell death in C32 and HT-144 cells, 24 hour assay, 10 µg/ml [1] [%] | specific cell death in C32 and HT-144 cells, 24 hour assay, 10 µg/ml [2] [%]
1 | 1D10 (antibody) | 5 to 15 | 
2 | L227 (anti-HLA-DR β, ATCC HB-96) (antibody) | 40 | 
3 | B1 |  | ~40
